Columns and labels:
PspF1–275 T86S = PspF1–275 T86S (E. coli, UniProt P37344 1-275, T86S); experiment: native gel or EMSA
PspF1–275 F85Y = PspF1–275 F85Y (E. coli, UniProt P37344 1-275, F85Y); experiment: native gel or EMSA

Binder	binding result (PspF1–275 T86S)	binding result (PspF1–275 F85Y)
LQQELQQ (peptide, UniProt P06223 33-39, looked up) [σ54RI peptide fragment, residues 33–39 (Patch 2)]	binds	binds
QLQQAIRL (peptide, UniProt P06223 18-25, looked up) [σ54RI peptide fragment, residues 18–25 (Patch 1)]		binds
